From paper PMC4803054 (Genes & Development, 2016)

T1: Mte1 (GST tag cleaved off) (S. cerevisiae, UniProt P53227 1-271)
T1 sequence (looked up): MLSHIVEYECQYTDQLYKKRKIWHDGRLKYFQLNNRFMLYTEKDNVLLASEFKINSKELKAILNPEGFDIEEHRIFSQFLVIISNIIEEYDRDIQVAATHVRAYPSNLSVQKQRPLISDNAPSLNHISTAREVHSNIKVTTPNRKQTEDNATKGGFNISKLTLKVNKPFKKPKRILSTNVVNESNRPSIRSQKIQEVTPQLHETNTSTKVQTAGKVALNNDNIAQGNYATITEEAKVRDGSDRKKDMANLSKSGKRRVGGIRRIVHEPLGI

B1: GST-Mte1 fragment 201-271 (domain or fragment)
chain: LHETNTSTKVQTAGKVALNNDNIAQGNYATITEEAKVRDGSDRKKDMANLSKSGKRRVGGIRRIVHEPLGI
B2: MBP-tagged Mph1(754–993) (domain or fragment, S. cerevisiae, UniProt P40562 754-993, looked up)
chain: SNENPSKKRKIFKALDNLENDSTEEASSSLETEDEEVSDDNNVFIAEGQNGCQKDLETAIIRTGESLTTLKPLHNFERPNMALFVNDCGLPTKIEKNVKDIRGNQHNLEKEKSCTVDKNNMVLSLDDWNFFRNRYIPEGVSFDVEPNFVQYTKGVKVPHCHKVSKIITLFNDESNDNKKRTIDMNYTKCLARGMLRDEKKFVKVNDKSQVDNNSVNHDSSQSFTLSNAELDDILGSDSDF

How the values were obtained:
Experiment in all cases: pull-down
[1] = target: Mph1-MHF complex (S. cerevisiae, UniProt P40562 1-993; Q3E835 1-90; Q3E829 1-80)
[2] = target: T1, Mte1 (GST tag cleaved off)
[3] = target: MHF complex (Mhf1-Mhf2) (S. cerevisiae, UniProt Q3E835 1-90; Q3E829 1-80)

Binder	binding result [1]	binding result [2]	binding result [3]
B1	binds		
B2		binds	binds
